Experimental data taken from patent US20220380407A1 (WASHINGTON UNIVERSITY, published 2022).
Read-outs that look alike come from different tables or passages of the source. Positions of bridges follow the written chain, without caps; N, C: chain ends. *: point of attachment. X2 = 1‑(ethylsulfonyl)piperidin‑4‑yl carbamate, CCS(=O)(=O)N1CCC(OC(=O)*)CC1; kbt = C-terminal Arg ketobenzothiazole

T1: KLK5 (#1108-SE-010, R&D Systems) (UniProt Q9Y337 23-293, limits assumed)
T1 sequence (looked up): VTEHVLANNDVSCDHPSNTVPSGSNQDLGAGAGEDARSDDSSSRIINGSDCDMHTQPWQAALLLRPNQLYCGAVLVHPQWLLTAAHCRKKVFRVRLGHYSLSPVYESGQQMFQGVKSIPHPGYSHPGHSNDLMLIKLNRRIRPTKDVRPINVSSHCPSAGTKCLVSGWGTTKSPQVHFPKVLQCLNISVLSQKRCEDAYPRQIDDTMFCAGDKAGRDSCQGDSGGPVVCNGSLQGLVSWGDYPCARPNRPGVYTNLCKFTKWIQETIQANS

T2: recombinant N-terminal His-tag HGFA serine protease domain (UniProt Q04756 373-655)
T2 sequence (looked up): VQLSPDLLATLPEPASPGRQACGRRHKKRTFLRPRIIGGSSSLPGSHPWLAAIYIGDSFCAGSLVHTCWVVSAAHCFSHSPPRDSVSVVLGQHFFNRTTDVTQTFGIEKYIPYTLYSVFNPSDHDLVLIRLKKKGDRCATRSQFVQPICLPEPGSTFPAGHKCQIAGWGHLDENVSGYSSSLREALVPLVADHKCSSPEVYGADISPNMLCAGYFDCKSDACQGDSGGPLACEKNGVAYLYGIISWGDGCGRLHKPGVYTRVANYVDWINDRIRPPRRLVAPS

T3: matriptase (#3946-SE-010, R&D Systems) (UniProt Q9Y5Y6 615-855)
T3 sequence (looked up): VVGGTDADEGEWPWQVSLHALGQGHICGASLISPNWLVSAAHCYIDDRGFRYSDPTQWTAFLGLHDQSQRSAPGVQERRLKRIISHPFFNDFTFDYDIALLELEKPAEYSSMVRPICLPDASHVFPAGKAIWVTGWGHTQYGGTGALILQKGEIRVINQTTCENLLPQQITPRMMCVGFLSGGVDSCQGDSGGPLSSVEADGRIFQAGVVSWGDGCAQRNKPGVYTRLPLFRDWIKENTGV

B1: Ac-SKLR kbt V-amide, ZFH7116 (peptide)
peptide: Ac-SKLR-{kbt-Val-NH2}
B2: 1-(ethylsulfonyl)piperidin-4-yl Leu-Arg-kbt carbamate (8h) (peptide)
peptide: X2-Leu-Arg-kbt
B3: phenyl(piperidin-4-yl)methyl Leu-Arg-kbt carbamate (11a) (peptide)
peptide: {phenyl(piperidin-4-yl)methyl carbamate}-Leu-Arg-kbt
B4: Cyclo(DLK)R-kbt, VD2173 (peptide)
peptide: Ac-DLKR-kbt
modifications: lactam 1-3; not fully specified; printed as Cyclo(DLK)R-kbt; also: N-terminal acetyl described as 6-acetamido

What was measured:
Experiment in all cases: cell-based or functional assay
[1] = molecular target: T1, KLK5 (#1108-SE-010, R&D Systems)
[2] = molecular target: T2, recombinant N-terminal His-tag HGFA …
human TMPRSS2 [3] = molecular target: T4, human TMPRSS2 (human, UniProt O15393 1-492)
[4] = molecular target: T5, activated hepsin (#4776-SE-010, R&D Systems) (UniProt P05981 45-417, limits assumed)
[5] = molecular target: T3, matriptase (#3946-SE-010, R&D Systems)
human TMPRSS2 [6] = molecular target: T4, human TMPRSS2; remark: listed apart in the source
[7] = molecular target: T2, recombinant N-terminal His-tag HGFA …; remark: listed apart in the source
[8] = molecular target: T6, Factor Xa (#1063-SE-010, R&D Systems) (UniProt P00742 41-488, limits assumed)
[9] = molecular target: T7, recombinant thrombin (#1473-SE-010, R&D Systems) (UniProt P00734 44-622)
[10] = molecular target: T5, activated hepsin (#4776-SE-010, R&D …); remark: listed apart in the source
[11] = molecular target: T3, matriptase (#3946-SE-010, R&D Systems); remark: listed apart in the source
[12] = molecular target: T2, recombinant N-terminal His-tag HGFA …; remark: listed apart in the source
[13] = molecular target: T6, Factor Xa (#1063-SE-010, R&D Systems); remark: listed apart in the source
[14] = molecular target: T7, recombinant thrombin (#1473-SE-010, R&D …); remark: listed apart in the source
[15] = molecular target: T5, activated hepsin (#4776-SE-010, R&D …); remark: listed apart in the source
[16] = molecular target: T3, matriptase (#3946-SE-010, R&D Systems); remark: listed apart in the source

T5 sequence (P05981 45-417 limits assumed): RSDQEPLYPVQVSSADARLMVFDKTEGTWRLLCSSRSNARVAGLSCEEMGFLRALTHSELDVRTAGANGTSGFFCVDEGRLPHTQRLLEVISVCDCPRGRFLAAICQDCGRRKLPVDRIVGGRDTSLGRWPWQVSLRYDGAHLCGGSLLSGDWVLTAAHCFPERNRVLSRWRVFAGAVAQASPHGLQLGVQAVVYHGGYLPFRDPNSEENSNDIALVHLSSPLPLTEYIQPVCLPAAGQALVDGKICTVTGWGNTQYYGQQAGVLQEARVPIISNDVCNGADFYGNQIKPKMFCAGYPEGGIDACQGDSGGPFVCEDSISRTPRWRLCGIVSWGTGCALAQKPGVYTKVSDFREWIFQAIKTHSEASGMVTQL
T4 sequence (O15393 whole entry): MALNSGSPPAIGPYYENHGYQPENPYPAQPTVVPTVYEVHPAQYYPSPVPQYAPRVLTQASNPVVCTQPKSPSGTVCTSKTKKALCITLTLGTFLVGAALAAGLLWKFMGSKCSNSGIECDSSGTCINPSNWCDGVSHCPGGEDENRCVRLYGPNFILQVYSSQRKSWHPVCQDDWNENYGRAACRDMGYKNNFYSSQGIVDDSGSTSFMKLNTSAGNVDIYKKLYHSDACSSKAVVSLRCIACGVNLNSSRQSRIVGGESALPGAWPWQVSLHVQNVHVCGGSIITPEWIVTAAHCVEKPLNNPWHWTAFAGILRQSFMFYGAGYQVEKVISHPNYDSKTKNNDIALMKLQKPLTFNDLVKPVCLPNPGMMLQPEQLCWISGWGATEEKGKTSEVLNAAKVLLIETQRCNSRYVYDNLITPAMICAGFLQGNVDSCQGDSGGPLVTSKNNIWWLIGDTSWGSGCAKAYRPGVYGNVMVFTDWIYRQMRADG
T6 sequence (P00742 41-488 limits assumed): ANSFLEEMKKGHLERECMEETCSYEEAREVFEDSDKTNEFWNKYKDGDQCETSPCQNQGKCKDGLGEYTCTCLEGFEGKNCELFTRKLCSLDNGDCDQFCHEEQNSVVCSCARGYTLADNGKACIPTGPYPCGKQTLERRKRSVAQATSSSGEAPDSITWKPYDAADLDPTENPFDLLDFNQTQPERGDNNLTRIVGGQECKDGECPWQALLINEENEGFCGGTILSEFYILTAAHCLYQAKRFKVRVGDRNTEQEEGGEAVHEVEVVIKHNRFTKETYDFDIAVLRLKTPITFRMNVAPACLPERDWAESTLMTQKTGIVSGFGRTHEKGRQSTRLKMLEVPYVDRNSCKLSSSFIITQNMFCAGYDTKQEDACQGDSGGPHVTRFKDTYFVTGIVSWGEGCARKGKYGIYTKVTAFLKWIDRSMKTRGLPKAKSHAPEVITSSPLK

| Binder | KLK5 IC50 [1] [nM] | HGFA IC50 [2] [nM] | Calu-3 EC50 (human TMPRSS2 [3]) [nM] | Hepsin IC50 [4] [nM] | Matriptase IC50 [5] [nM] | IC50, cell-based TMPRSS2 fluorogenic enzyme inhibition assay (human TMPRSS2 [6]) [nM] | HGFA IC50 [7] [nM] | Factor Xa IC50 [8] [nM] | Thrombin IC50 [9] [nM] | Hepsin IC50 [10] [nM] | Matriptase IC50 [11] [nM] | HGFA (IC50 nM) [12] [nM] | Factor Xa* (IC50 nM) [13] [nM] | Thrombin* (IC50 nM) [14] [nM] | Hepsin (IC50 nM) [15] [nM] | Matriptase (IC50 nM) [16] [nM] |
| --- | --- | --- | --- | --- | --- | --- | --- | --- | --- | --- | --- | --- | --- | --- | --- | --- |
| B1 | 137 | 26 | 307 | 0.5 | 11 | 51 |  |  |  |  |  |  |  |  |  |  |
| B2 |  |  |  |  |  |  | > 20000 | > 20000 | > 20000 | 10 | 730 |  |  |  |  |  |
| B3 |  |  |  |  |  |  | 14000 | > 20000 | > 20000 | 8 | 1100 |  |  |  |  |  |
| B4 | 193 | 5260 | 104 | 10 | 1.4 | 6.9 |  |  |  |  |  | 3590 | 564 | 700 | 8.4 | 0.28 |
